This note sets out measurements from the supplement of paper PMC9170038.

The test system of this data set is MS2 coat protein. Description: apparent KD of MS2 coat protein; designed switch direction (-1 OFF switch, 1 ON switch): 1; higher = weaker reporter binding. In a few lines:
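RNA switches sharing common flanks were transcribed by stalled E. coli RNA polymerase on Illumina chips. A doubling series of SNAP-549-labelled MS2 coat protein, from 0.7 or 1.5 nM to 3 µM, was applied in Tris-HCl pH 7.5 buffer with KCl, MgCl2, BSA, DTT, tRNA and Tween-20. Each step lasted 0.8–1.5 h at the bottom of the series and 10–20 min at the top. Normalised cluster fluorescence was curve-fitted, giving apparent KD as the per-design median over clusters.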

[1] abbreviates: input ligand: microRNA oligo, concentration not stated.

As for “UGUUUGUUGUGAGGAUAUACGUACACCUUACAUGAGGAUCACCCAUGUUGUUUCUUUGAUUGUUGGUAGAAGGCACUUGGUUAU [JR_SSNG2_Sub048] (Eterna round: R96, puzzle: Same State NG 2)”, the “apparent KD of MS2 coat protein” value was 324 nM (input ligand: FMN 200 uM), 123 nM under setting [1] and 208 nM (input ligand: none).

Take “UUAACAUGAGGAUCACCCAUGUAUACGUAGUUUGCAUUUUGACAGGAUAUUGUUUAUCUAUAUAGCAAGAAGGGUCGUUAGUCU [JR_SSNG3_Sub009] (Eterna round: R96, puzzle: Same State NG 3)”: the “apparent KD of MS2 coat protein” value (input ligand: FMN 200 uM) turned out to be 27 nM, the “apparent KD of MS2 coat protein” value under setting [1] was determined as 31.8 nM and the “apparent KD of MS2 coat protein” value (input ligand: none) was 41.9 nM.

Consider “UUAAUAAUGAUAGGAUAUACAUGAGGAAUUCUCGUAGAAGGAUCAUGACAUGAGGAUCACCCAUGUAACGCUCGGAAGAGCGUA [Mat - Same State NG 1 - JL mod - D38] (Eterna round: R96, puzzle: Same State NG 1)”, for which the “apparent KD of MS2 coat protein” value reads like this: (input ligand: FMN 200 uM) 846 nM; under setting [1], 236 nM; (input ligand: none) 909 nM.

Take “UUAAUCUGAACAUGAGGAUCACCCAUGUAUCUUACCUUAGGACAGGAUAUAGAUGUUAAGAAUUACUAGAAGGGUCAGUAUAUU [JR_SSNG3_Sub012] (Eterna round: R96, puzzle: Same State NG 3)”: the “apparent KD of MS2 coat protein” value under setting [1] came to 33.1 nM.

As to “UUAAUUAAUUAAUUAUACAUGAGGAUCACCCAUGUAAGUGAUCAGGAUAUCAGCUCGAAUAGAGCUGAGAAGGGAUACAUGAAU [SSNG3/12-A1] (Eterna round: R96, puzzle: Same State NG 3)”, the “apparent KD of MS2 coat protein” value under setting [1] worked out at 101 nM.

In the case of “UUAAUUAUGUAAGGAUAUACAUGAGGAUUUCUCGUAGAAGGUACAUUACAUGAGGAUCACCCAUGUGGGUGUCCGUAGACGCCA [JL SSNG1 1.06] (Eterna round: R96, puzzle: Same State NG 1)”, the “apparent KD of MS2 coat protein” value under setting [1] is 475 nM.

With “UUAAUUUACUGAGGAUAUCGUGUCGUCUGAUUUGACAUGAGGAUCACCCAUGUGUGAAGUGGUAUCGAGAAGGCAGUUUUCUUA [JR_SSNG2_Sub027] (Eterna round: R96, puzzle: Same State NG 2)”, the “apparent KD of MS2 coat protein” value came to 24.2 nM (input ligand: FMN 200 uM), 42.6 nM under setting [1] and 75.5 nM (input ligand: none).

As for “UUAGAAUUGCAAGGAUAUCUAAUUUAGAUAGUAAGAGAAGGUGCUUGAUAGUUACAUGAGGAUCACCCAUGUUUUUGGGUUUAU [JR_SSNG1_Sub058] (Eterna round: R96, puzzle: Same State NG 1)”, the “apparent KD of MS2 coat protein” value under setting [1] was 416 nM.

Take “UUAGCGACGGAAGGAUAUUGGACGCUAACAUGAGGAUCACCCAUGUAGAGGUCCUACCAACAGCGCAAGAAGGUCCGAUCAGCA [Eternabot solution 13] (Eterna round: R96, puzzle: Same State NG 2)”: the “apparent KD of MS2 coat protein” value is, setting by setting: (input ligand: FMN 200 uM) 22.7 nM; under setting [1], 8.94 nM; (input ligand: none) 13.3 nM.

In the case of “UUAUACUCGAGAGGAUAUGCAGAGGAUCACCCUGCAGAAGGCUCGUUAGAGAGGAUAUGCAGAGGAUCACCCUGCAGAAGGCUC [pwkr ssNG DX.24] (Eterna round: R96, puzzle: Same State NG 1)”, the “apparent KD of MS2 coat protein” value runs as follows: (input ligand: FMN 200 uM) 45.7 nM; under setting [1], 16.1 nM; (input ligand: none) 37.4 nM.

Consider “UUAUCUCAGACAUGAGGAUCACCCAUGUGGUUUUGACUUAGACAGGAUAUAGUAGUAUCGAAAUACUAGAAGGGUCAUUUUAUU [JR_SSNG3_Sub022] (Eterna round: R96, puzzle: Same State NG 3)”, for which the “apparent KD of MS2 coat protein” value came to 91.3 nM (input ligand: FMN 200 uM), 99.5 nM under setting [1] and 125 nM (input ligand: none).

For “UUAUCUCUUACAUGAGGAUCACCCAUGUUUUUAUGUCUUAGACAGGAUAUAGUAGUCUCGUAUUACUAGAAGGGUCUUUUUAUU [JR_SSNG3_Sub020] (Eterna round: R96, puzzle: Same State NG 3)”, the “apparent KD of MS2 coat protein” value is, setting by setting: (input ligand: FMN 200 uM) 18.7 nM; under setting [1], 22.4 nM; (input ligand: none) 26.4 nM.

In the case of “UUAUUAUUUACAUGAGGAUCACCCAUGUUUUUAUGUCAGAGACAGGAUAUAGAAGUCUCGUUUUACUAGAAGGGUCUUUUUAUU [JR_SSNG3_Sub016] (Eterna round: R96, puzzle: Same State NG 3)”, the “apparent KD of MS2 coat protein” value runs as follows: (input ligand: FMN 200 uM) 22 nM; under setting [1], 17.1 nM; (input ligand: none) 22 nM.

As to “UUCUCAUUUACAUGAGGAUCACCCAUGUUUUUUUGUCAGAGAUAGGAUAUAGUUCUCUCGUUUUUCUAGAAGGAUCUUUUUAUU [JR_SSNG3_Sub087] (Eterna round: R96, puzzle: Same State NG 3)”, the “apparent KD of MS2 coat protein” value by setting is: (input ligand: FMN 200 uM) 79.7 nM; under setting [1], 53.2 nM; (input ligand: none) 71.7 nM.

For the sequence “UUCUCAUUUACAUGAGGAUCACCCAUGUUUUUUUGUCGGAAAUAGGAUAUAGGUCUCUCGUUUUACUAGAAGGAUUUCCUUAUU [JR_SSNG3_Sub089] (Eterna round: R96, puzzle: Same State NG 3)”, the “apparent KD of MS2 coat protein” value (input ligand: FMN 200 uM) worked out at 70.4 nM, the “apparent KD of MS2 coat protein” value under setting [1] is 70.7 nM and the “apparent KD of MS2 coat protein” value (input ligand: none) was 58.9 nM.
